{"source": "paper PMC3543496", "about": "(FEBS letters, 2012)", "key": {"SEC-MALS [1]": {"molecular_target": "the molecule itself", "test": "SEC-MALS"}, "SEC-MALS [2]": {"molecular_target": "the molecule itself", "test": "SEC-MALS", "remark": "listed apart in the source"}}, "note": "Read-outs that look alike come from different tables or passages of the source.", "data": [{"protein": "WT clathrin hub (bovine clathrin heavy chain aa1074-1675) (domain or fragment, UniProt P49951 1074-1675, looked up) KFDVNTSAVQVLIEHIGNLDRAYEFAERCNEPAVWSQLAKAQLQKGMVKEAIDSYIKADDPSSYMEVVQAANTSGNWEELVKYLQMARKKARESYVETELIFALAKTNRLAELEEFINGPNNAHIQQVGDRCYDEKMYDAAKLLYNNVSNFGRLASTLVHLGEYQAAVDGARKANSTRTWKEVCFACVDGKEFRLAQMCGLHIVVHADELEELINYYQDRGYFEELITMLEAALGLERAHMGMFTELAILYSKFKPQKMREHLELFWSRVNIPKVLRAAEQAHLWAELVFLYDKYEEYDNAIITMMNHPTDAWKEGQFKDIITKVANVELYYRAIQFYLEFKPLLLNDLLMVLSPRLDHTRAVNYFSKVKQLPLVKPYLRSVQNHNNKSVNESLNNLFITEEDYQALRTSIDAYDNFDNISLAQRLEKHELIEFRRIAAYLFKGNNRWKQSVELCKKDSLYKDAMQYASESKDTELAEELLQWFLQEEKRECFGACLFTCYDLLRPDVVLETAWRHNIMDFAMPYFIQVMKEYLTKVDKLDASESLRKEEEQATETQPIVYGQPQLMLTAGPSVAVPPQAPFGYGYTAPAYGQPQPGFGYSM", "values": [{"measurement": "stoichiometry N", "setting": "SEC-MALS [1]", "value": 3}]}, {"protein": "C1573A clathrin hub (bovine clathrin heavy chain aa1074-1675, C1573A) (domain or fragment, UniProt P49951 1074-1675, looked up) KFDVNTSAVQVLIEHIGNLDRAYEFAERCNEPAVWSQLAKAQLQKGMVKEAIDSYIKADDPSSYMEVVQAANTSGNWEELVKYLQMARKKARESYVETELIFALAKTNRLAELEEFINGPNNAHIQQVGDRCYDEKMYDAAKLLYNNVSNFGRLASTLVHLGEYQAAVDGARKANSTRTWKEVCFACVDGKEFRLAQMCGLHIVVHADELEELINYYQDRGYFEELITMLEAALGLERAHMGMFTELAILYSKFKPQKMREHLELFWSRVNIPKVLRAAEQAHLWAELVFLYDKYEEYDNAIITMMNHPTDAWKEGQFKDIITKVANVELYYRAIQFYLEFKPLLLNDLLMVLSPRLDHTRAVNYFSKVKQLPLVKPYLRSVQNHNNKSVNESLNNLFITEEDYQALRTSIDAYDNFDNISLAQRLEKHELIEFRRIAAYLFKGNNRWKQSVELCKKDSLYKDAMQYASESKDTELAEELLQWFLQEEKRECFGACLFTAYDLLRPDVVLETAWRHNIMDFAMPYFIQVMKEYLTKVDKLDASESLRKEEEQATETQPIVYGQPQLMLTAGPSVAVPPQAPFGYGYTAPAYGQPQPGFGYSM", "values": [{"measurement": "stoichiometry N", "setting": "SEC-MALS [1]", "value": "~2"}, {"measurement": "stoichiometry N", "setting": "SEC-MALS [2]", "value": "~3"}]}]}
